Results on 133 substances are retold here after the supplement of paper PMC12042874.

± gives the uncertainty stated by the source.

This data set is described as follows: amyloid nucleation score (Sup35N fusion, yeast selection) (log enrichment); library NNK3; higher = more nucleation; inactive = no reads after selection. The method in brief:
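After 24 hours of induction with 100 μM copper sulfate, psi-negative yeast expressing peptides of 20 random codons fused to Sup35N were grown for 7 days at 30°C on medium lacking adenine and uracil. Input and output plasmid inserts were sequenced with Illumina, and sequences with under 100 input reads were discarded. Scores for nucleation are the DiMSum log enrichment of output over input reads, centred on the mode score of non-aggregating sequences.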
In the case of RDDMGLESKQDGEP, the amyloid nucleation score result is “inactive”.

Turning to RSAERRAQNSNFKLVDLGRN, the amyloid nucleation score entry was “inactive”.

Take SPDTVPIGGSSGTNVYLCMH: the amyloid nucleation score result is “inactive”.

VENVDYFCDFGTISIL: the amyloid nucleation score is 1.66 ± 0.087.

In turn, NVRFDGKVWLG gave an amyloid nucleation score of 0.744 ± 0.31.

As to GELPLRVKVKSFHTDTSLRT, the amyloid nucleation score entry was “inactive”.

In turn, YITNVQVIGMMVINSNHKGV came in with an amyloid nucleation score of 3.42 ± 0.058.

WSTPDFRGLHYSTVFITIFA gave an amyloid nucleation score of 0.194 ± 0.51.

As to GRGSKLVCVR, the amyloid nucleation score was 2.63 ± 0.071.

With HLNTSLETLKVLMVTQPTGN, the amyloid nucleation score result was “inactive”.

Consider WYGVSACYGWHNVAHSSRTR, for which the amyloid nucleation score entry was “inactive”.

Take SSGYAFTGKVFYC: the amyloid nucleation score entry is “inactive”.

As to LRFRLNSRVYTTHNIKVPSL, the amyloid nucleation score entry is “inactive”.

For SDIVCVKLEYT, the amyloid nucleation score entry was “inactive”.

On to ILVAGTAV, for which the amyloid nucleation score entry was “inactive”.

For YFYGLQWPCD, the amyloid nucleation score result was “inactive”.

Turning to RYPSDSIGFISLDTGGCGVR, the amyloid nucleation score result is “inactive”.

As for TSSHLIGLFYDMLFRDTRSM, the amyloid nucleation score result was “inactive”.

On to RVKRWK, for which the amyloid nucleation score is -0.095 ± 0.85.

The substance PKSYVNTVKVMVVNSQVQLQ gave an amyloid nucleation score of 0.836 ± 0.2.

On to SDKLSFSRDPSVMRVGQVQR, for which the amyloid nucleation score result is “inactive”.

In the case of ANGLLSFSGRADGLQTNSGC, the amyloid nucleation score result is “inactive”.

NGVILYETSAWVTNVYSRFK returned an amyloid nucleation score of 1.2 ± 0.18.

Turning to DKSMIFVFI, the amyloid nucleation score was determined as 0.864 ± 0.22.

With EMLSIENGRFTKCKLGECVR, the amyloid nucleation score is -0.137 ± 0.52.

FNVVMSRYIYYCVMGVIRMS: the amyloid nucleation score result was “inactive”.

For LSMTGV, the amyloid nucleation score entry is “inactive”.

Take GSALCHCLCNMEVMSYFVAF: the amyloid nucleation score result was “inactive”.

As to TIHSRMGIVLYFFAIDCVR, the amyloid nucleation score entry is “inactive”.

Take YLSGSDIGFGYERCKIDSGV: the amyloid nucleation score result was “inactive”.

FSCCITNPTYTYCWEMVGVS: the amyloid nucleation score result was “inactive”.

The substance KDNPLSCLVKVNVWTKLQEG had an amyloid nucleation score of 1.16 ± 0.12.

LYNGGI: the amyloid nucleation score result is “inactive”.

Regarding VHSPWVNNLYQCWTYYFLLL, the amyloid nucleation score was 0.162 ± 0.88.

In the case of LWRLRAIWVNNVMAVRKFVG, the amyloid nucleation score is -0.68 ± 1.

FMCNNRSILGICIFYDLRRN showed an amyloid nucleation score of 2.64 ± 0.081.

For MVQNLQNRYGSWSCKFGFQR, the amyloid nucleation score entry is “inactive”.

With VIGTGN, the amyloid nucleation score entry was “inactive”.

Consider QSMWH, for which the amyloid nucleation score result was “inactive”.

With DAFIGYHYLGGLISGIWSSR, the amyloid nucleation score was determined as 0.693 ± 0.097.

In the case of VLRAGELLF, the amyloid nucleation score result is “inactive”.

With CRKNRSFGDGDLKFCANLNC, the amyloid nucleation score result is “inactive”.

In turn, NVSQFISIGVVITFKMLLVW had an amyloid nucleation score of -0.478 ± 0.68.

As for FLAWYMTFMV, the amyloid nucleation score stood at 0.036 ± 0.88.

As to AVTDTNLLLFDVGYESLVHS, the amyloid nucleation score result was “inactive”.

As to WLQGCRSRWAVVL, the amyloid nucleation score result is “inactive”.

As to WTYTKVWIWS, the amyloid nucleation score entry is “inactive”.

Regarding PVLGSHRIVLSFDKIYLSRD, the amyloid nucleation score result was “inactive”.

Consider SALEVFLWNKYLFVDVTLLL, for which the amyloid nucleation score result was “inactive”.

For IALIICEGLPRMRGSSGPVG, the amyloid nucleation score entry was “inactive”.

For the substance LPKCQLLLRRCRV, the amyloid nucleation score entry was “inactive”.

For VQGKALAS, the amyloid nucleation score result was “inactive”.

Substance LNSGIS registered an amyloid nucleation score of 0.103 ± 0.24.

Take LKVLVD: the amyloid nucleation score entry is “inactive”.

Turning to VGFLWMQRVNEVDK, the amyloid nucleation score entry was “inactive”.

CKSIPWVFYWFLLLYGYL: the amyloid nucleation score entry is “inactive”.

For the substance CFKPILDLGSKCLFVLVVGK, the amyloid nucleation score entry was “inactive”.

As to TWKHFFIALLRRSNY, the amyloid nucleation score entry was “inactive”.

For MMSDNDISLRRYFVQCLKSS, the amyloid nucleation score entry is “inactive”.

Regarding YACRVGVWKRVRVWNSGVSL, the amyloid nucleation score entry was “inactive”.

As for IHPPSGYPGSGLSLCCSKNS, the amyloid nucleation score entry was “inactive”.

In the case of TPNRGDFWITCSGGVGVWYG, the amyloid nucleation score entry is “inactive”.

With YSCSYNTSTN, the amyloid nucleation score is -0.52 ± 0.68.

On to GRKVCLSRPTRFNSFLWMVY, for which the amyloid nucleation score result was “inactive”.

Turning to RFTMWRNDHC, the amyloid nucleation score turned out to be 0.421 ± 0.38.

With YNANFFWYLADGIFDA, the amyloid nucleation score result was “inactive”.

QSIARWTVLSFSWRTTSRKS yielded an amyloid nucleation score of -0.416 ± 1.2.

In the case of SSDNIVSGWWALSNKSATFV, the amyloid nucleation score result is “inactive”.

For the substance RKVEG, the amyloid nucleation score result was “inactive”.

With SMSIYPVCLTF, the amyloid nucleation score result was “inactive”.

ILAHAHYVYVALARWPTYGY: the amyloid nucleation score was -0.35 ± 0.98.

Turning to NLNGLMRLQIAVLFQ, the amyloid nucleation score amounted to 0.577 ± 0.21.

As to MSVQGDHYFPT, the amyloid nucleation score entry is “inactive”.

Consider CTRCVFSIR, for which the amyloid nucleation score was -0.056 ± 0.57.

As to GWSYRDLTMVGVNELFV, the amyloid nucleation score result is “inactive”.

In the case of KAWETWAITTRSWKMFIRCL, the amyloid nucleation score amounted to 0.046 ± 0.96.

In the case of VALWGSWRRPWDAVAFDRTG, the amyloid nucleation score entry was “inactive”.

Turning to GALAKFLLISKTMRVDMRMV, the amyloid nucleation score entry is “inactive”.

Take CPESCSN: the amyloid nucleation score result is “inactive”.

On to YDKWSRSMYVKLCLGAALSW, for which the amyloid nucleation score entry is “inactive”.

Consider WIVFMGDASCLSLLTWELFC, for which the amyloid nucleation score worked out at 1.25 ± 0.095.

For the substance QMGVVNLRAKGQQCAQRQSK, the amyloid nucleation score entry was “inactive”.

As to QSQLGPDCRSYTGGERVLDV, the amyloid nucleation score result was “inactive”.

Turning to VHFKRVEKG, the amyloid nucleation score result is “inactive”.

In the case of WDLRSCCDNVSTFEL, the amyloid nucleation score result is “inactive”.

For LVSWSIA, the amyloid nucleation score result was “inactive”.

For SWGNHYLRGLICYFLLFTDT, the amyloid nucleation score result was “inactive”.

On to FYSTAMCGED, for which the amyloid nucleation score entry is “inactive”.

Substance WAYMVNFFRTNLICEGWFDG returned an amyloid nucleation score of -0.841 ± 2.5.

As to EDNTKLRSWGELLGVCGKLS, the amyloid nucleation score result was “inactive”.

In the case of TTGLFE, the amyloid nucleation score result is “inactive”.

FVLRTNWGGISVYIYDVCSC showed an amyloid nucleation score of -0.238 ± 1.1.

In the case of LWQNSDLSSSDEYGQRFGKR, the amyloid nucleation score is -0.706 ± 1.

Consider HSLVVNSSSERRYG, for which the amyloid nucleation score result was “inactive”.

Consider VFNFPQSDGNRSYMDFMAIQ, for which the amyloid nucleation score result is “inactive”.

VLPENIILNFIQMSDNRFLL displayed an amyloid nucleation score of 1.8 ± 0.072.

Regarding FFSVGIKLDVFVWFWGEGHL, the amyloid nucleation score entry was “inactive”.

GSFGPIFQWNTIGALGFFG displayed an amyloid nucleation score of 2.19 ± 0.059.

For TVHSHKWCSLVGGPIRISWT, the amyloid nucleation score entry was “inactive”.

With CYVPVKGLYMPPYGTLRLWG, the amyloid nucleation score entry was “inactive”.

As for RMHDSCFLYGISEDRDSLGN, the amyloid nucleation score result is “inactive”.

Regarding NWRLFWG, the amyloid nucleation score worked out at 1.6 ± 0.077.

Consider MTFRFNVMLVCLWRATNCFL, for which the amyloid nucleation score entry is “inactive”.

In the case of LGCSVTTVSV, the amyloid nucleation score entry is “inactive”.

For ITSEIMAIWFDICKAWDLCV, the amyloid nucleation score result is “inactive”.

As to PLFHVFLELYTLPFVENFDV, the amyloid nucleation score result is “inactive”.

For IRVSN, the amyloid nucleation score result was “inactive”.

On to MRLDRS, for which the amyloid nucleation score entry is “inactive”.

On to WIFMSYWCVDLMPQLLHECW, for which the amyloid nucleation score entry is “inactive”.

Substance YVLFCCCPLMDFITDLSLST gave an amyloid nucleation score of 2.1 ± 0.055.

With PTKRYVKSYLISCVFIISHP, the amyloid nucleation score entry was “inactive”.

On to FFFYFLRFSDFNWFINWLIS, for which the amyloid nucleation score entry is “inactive”.

For the substance YLVMRSKYLYRFYAMVLKDL, the amyloid nucleation score entry is “inactive”.

For the substance YGYFHTRGYVAFE, the amyloid nucleation score entry was “inactive”.

Turning to LHLNGAYMAFLIVMSCMHFS, the amyloid nucleation score entry was “inactive”.

Take TCTGCTSVTL: the amyloid nucleation score entry was “inactive”.

As to SIYFWCS, the amyloid nucleation score was 2.09 ± 0.065.

VLFSFAMLFKACLACFISCV: the amyloid nucleation score result is “inactive”.

For the substance TVRASFGYNLRNWCSTVVVE, the amyloid nucleation score result was “inactive”.

On to RMAIISSRIWFGFLAMQFVF, for which the amyloid nucleation score entry is “inactive”.

As for RSQNF, the amyloid nucleation score result is “inactive”.

GYDGRGSHAL: the amyloid nucleation score result is “inactive”.

In the case of NWKLPGFPNLVQRITTDSPL, the amyloid nucleation score entry was “inactive”.

Take LSYGRGVTVLYVLWSYFISR: the amyloid nucleation score result is “inactive”.

In the case of REMFASPSIGTALRR, the amyloid nucleation score result was “inactive”.

As to TVSIKSAHATRTQVVPNMSF, the amyloid nucleation score result was “inactive”.

With VEDGAGGP, the amyloid nucleation score entry is “inactive”.

For the substance FWGWLARTNLKILSILFNLI, the amyloid nucleation score result was “inactive”.

Consider SSTCTDL, for which the amyloid nucleation score result was “inactive”.

With IIHEFFSTQLILYDCIDRWF, the amyloid nucleation score result is “inactive”.

For LRGNECRPGVELPVTVSKFR, the amyloid nucleation score result was “inactive”.

For the substance YESHLLRNRDSRTYSR, the amyloid nucleation score result was “inactive”.

In the case of MSGALFMGLGTGRSRVTRNL, the amyloid nucleation score result was “inactive”.
